In PMC4489214:

Molecular target: LRRTM2 expressed on K562 cells (mouse) (UniProt Q8BGA3)
Experiment: cell adhesion assay; K562 'prey' cells (NRX1-alpha variant, beta-Gal, RFP) mixed with biotinylated K562 'bait' cells (LRRTM2 or NL3(A2), AP-GFP, BirA-ER) on neutravidin magnetic beads; 60 min at RT in DMEM without serum; bound cells read by beta-Gal activity

Sequence of UniProt Q8BGA3 (Q8BGA3 34-515): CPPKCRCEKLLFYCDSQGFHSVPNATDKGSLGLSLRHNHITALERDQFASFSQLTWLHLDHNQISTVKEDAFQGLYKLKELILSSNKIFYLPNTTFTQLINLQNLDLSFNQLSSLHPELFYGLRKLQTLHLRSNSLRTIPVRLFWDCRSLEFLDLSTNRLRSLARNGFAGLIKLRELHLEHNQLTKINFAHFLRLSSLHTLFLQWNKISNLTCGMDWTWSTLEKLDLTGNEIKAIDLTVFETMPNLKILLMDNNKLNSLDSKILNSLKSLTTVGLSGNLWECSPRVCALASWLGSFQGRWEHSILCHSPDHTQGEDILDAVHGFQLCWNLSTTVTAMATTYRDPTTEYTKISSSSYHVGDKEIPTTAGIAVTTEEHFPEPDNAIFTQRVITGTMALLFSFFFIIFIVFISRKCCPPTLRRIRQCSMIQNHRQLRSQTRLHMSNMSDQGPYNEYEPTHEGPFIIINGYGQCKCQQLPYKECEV

NRX1alpha lacking the insertions at AS3 and AS6, expressed on K562 cells (from UniProt Q9CS84 31-1514) (receptor)
fold increase of adhesion against the AS6+ isoforms: 3 fold

NRX1alpha with the insertion at AS3 and lacking the insertion at AS6, expressed on K562 cells (from UniProt Q9CS84 31-1514) (receptor)
fold increase of adhesion against the AS6+ isoforms: 3 fold
